Assay results published in US20100272721A1, “TREATMENT OF CANCER” (Biogen Idec MA Inc., priority 2005, published 2010).

Key:
[1] = system: mammary epithelial line Eph4; assay: 3-D culture model system of the mammary epithelial line Eph4; assay type: cell-based; conditions: Eph4 3-D culture
Text: We detect Fn14 protein in human tumor cell lines and in xenograft and primary breast tumor samples. Fn14 expression is detected in the majority of human breast tumors but not in normal breast tissue samples. […] The capacity to promote proliferation, inhibit differentiation and induce invasion is consistent with a role for TWEAK in tumorigenesis.

[2] = system: Human pancreatic tumor cells BxPc3, Panc1 and MiaPaCa2; assay: cell invasion assay on matrigel-coated membranes in transwell plates; assay type: cell-based; conditions: Tweak 50 ng/ml; BxPc-3, Panc-1 and MiaPaCa; measured after 48 hours; FIG. 1
Procedure: FIG. 1 is a bar graph showing results from an invasion assay of human pancreatic cell lines with and without added Tweak (Tk), and in the presence or absence of an anti-Tweak antibody (p5g9). HGF is a positive control.
To measure the effect of Tweak on pancreatic tumor cell line invasiveness, cell invasion assays were performed. Human pancreatic tumor cells BxPc3, Panc1 and MiaPaCa2 were plated on matrigel-coated membranes in transwell plates. TWEAK was added to the medium, and the number of cells that invade was measured after 48 hours. BSA was used as a negative control and HGF as a positive control in these experiments.

[3] = system: Human pancreatic cells (BxPc-3); assay: BxPc-3 xenograft pancreatic cancer model; assay type: in vivo; conditions: BxPc-3 subcutaneous in nude mice; IP administration started after 2 weeks; versus control antibody (P1.17) or PBS; FIG. 2
Procedure: FIG. 2 is a graph showing growth of human pancreatic tumor cell line BxPc-3 in a xenograft animal model, with and without anti-Tweak antibody (P2D10) treatment.
Human pancreatic cells (BxPc-3) were injected subcutaneously into nude mice. After 2 weeks, when the tumors were […], the mice (9-10 per group) were treated with an anti-TWEAK antibody (P2D10), a control antibody (P1.17) or PBS, by IP administration.

matrix metalloproteinase MMP-9 expression ([1]; following TWEAK treatment)	Molecule	morphogenic phenotype (proliferation, invasiveness, functional differentiation) ([1]; TWEAK treatment)	invasion of human pancreatic cell lines (number of cells that invade) [2]	tumor size [3]
significantly up-regulated	Tweak: TNF-like weak inducer of apoptosis, a member of the tumor-necrosis factor (TNF) superfamily of cytokines (protein, listed as Homo sapiens) MAARRSQRRRGRRGEPGTALLVPLALGLGLALACLGLLLAVVSLGSRASLSAQEPAQEELVAEEDQDPSELNPQTEESQDPAPFLNRLVRPRRSAPKGRKTRARRAIAAHYEVHPRPGQDGAQAGVDGTVSGWEEARINSSSPLRYNRQIGEFIVTRAGLYYLYCQVHFDEGKAVYLKLDLLVDGVLALRCLEEFSATAASSLGPQLRLCQVSGLLALRPGSSLRIRTLPWAHLKAAPFLTYFGLFQVH	induces a dramatic branching morphogenic phenotype	induced invasion	
	P2D10: exemplary murine anti-Tweak antibody; heavy chain variable domain SEQ ID NO:3, light chain variable domain SEQ ID NO:4 (antibody, listed as Mus musculus, V domains shown) VH: EVQLVESGGGLVRPGGSLKLFCAASGFTFSRYAMSWVRQSPEKRLEWVAEISSGGSYPYYPDTVTGRFTISRDNAKNTLYLEMSSLKSEDTAMYYCARVLYYDYDGDRIEVMDYWGQGTAVIVSS VL: DVVMTQSPLSLSVSLGDQASISCRSSQSLVSSKGNTYLHWYLQKPGQSPKFLIYKVSNRFSGVPDRFSGSGSGTDFTLKISRVAAEDLGVYFCSQSTHFPRTFGGGTTLEIK			statistically significant reduction in tumor size
